According to the supplement of paper PMC9732359:
± gives the uncertainty stated by the source.

Test: protein stability index of a GFP-peptide fusion (yeast GPS) (PSI 1-4); higher = more stable; sorted into four equal gates, so the index is relative within each strain
Outline: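 Tiled 17-residue peptides from yeast proteins were fused downstream of GFP on a plasmid that also expresses Cherry, and the pooled library was carried in yeast. Mid-log cultures grown in leucine-free medium were sorted into four equal gates by GFP/Cherry fluorescence ratio. Plasmids from each gate were PCR-amplified and Illumina-sequenced, and reads were assigned to strains by barcodes. Each peptide's protein stability index is the sum, over gates, of the gate's read frequency multiplied by its gate number.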

Row | Sequence | protein stability index (doa10∆) | protein stability index (pdr5∆) | protein stability index (san1∆) | protein stability index (ubr1∆)
1 | AHTASVGVVFGSGAANE [COR1] | 3.23 ± 0.12 | 3.29 ± 0.084 | 3.07 ± 0.1 | 3.39 ± 0.12
2 | AIIVAGVQSNGDQFLRY [PRE4] | 2.74 ± 0.095 | 2.83 ± 0.073 | 2.4 ± 0.13 | 2.28 ± 0.061
3 | AIPLLKVLRKFRVQSQS [NUT1] | 1.69 ± 0.085 | 1.93 ± 0.079 | 1.69 ± 0.11 | 2.5 ± 0.053
4 | AIPNGIHLQRFDEGTTL [RPO21] | 2.29 ± 0.064 | 1.89 ± 0.11 |  | 2.32 ± 0.062
5 | AIQLDYSTANEYIIAAI [RPN3] | 2.24 ± 0.058 | 2.09 ± 0.073 | 2.32 ± 0.094 | 2.47 ± 0.056
6 | AIVPGQSISGTLELSAQ [SWP82] | 3.43 ± 0.094 | 3.13 ± 0.11 | 2.98 ± 0.14 | 3.07 ± 0.092
7 | AIYNNPTRIRTKSSKEF [RRI2] | 1.41 ± 0.068 | 1.67 ± 0.06 | 1.68 ± 0.1 | 1.55 ± 0.061
8 | AKAGLTFPVGRVHRLLR [HTA1] | 2.03 ± 0.11 | 2.72 ± 0.14 | 2.01 ± 0.16 | 2.39 ± 0.12
9 | AKAVWENIIIVGGTTSI [ARP9] | 1.89 ± 0.044 | 2.12 ± 0.057 | 1.67 ± 0.081 | 2.48 ± 0.054
10 | AKGFYHTPMVNFESISA [SRB8] | 2.16 ± 0.06 | 1.84 ± 0.05 | 1.52 ± 0.11 | 1.93 ± 0.05
11 | AKITEIGSTSKRPIESG [YIL149C/MLP2] | 3.23 ± 0.084 | 3.07 ± 0.1 | 3.14 ± 0.11 | 3.31 ± 0.059
12 | AKKKVLDVTKEAQANLL [RPO21] | 2.41 ± 0.17 | 2.73 ± 0.11 |  | 2.84 ± 0.14
13 | AKKNNFIEDLAPEQQVQ [UBP6] | 2.81 ± 0.073 | 3.15 ± 0.08 | 2.99 ± 0.08 | 3.06 ± 0.065
14 | AKLHRISPKIWCAGAGT [PUP1] | 1.93 ± 0.049 | 1.87 ± 0.046 | 1.85 ± 0.056 | 1.88 ± 0.042
15 | AKLNYKNLNPASSSPSS [ECM29] | 3.25 ± 0.071 | 3.06 ± 0.08 | 2.79 ± 0.11 | 3.04 ± 0.051
16 | AKRHRKILRDNIQGITK [HHF1] | 3.01 ± 0.094 | 3.44 ± 0.098 | 3.21 ± 0.058 | 3.07 ± 0.069
17 | AKRIRVSHHATTFTHCE [RPB2] | 3.07 ± 0.07 | 3.15 ± 0.074 | 2.48 ± 0.09 | 2.88 ± 0.066
18 | AKRVENFNSSAPIADDN [DSN1] | 3.19 ± 0.084 | 3.32 ± 0.075 | 2.9 ± 0.1 | 3.43 ± 0.059
19 | AKSDETKQASSFSFLNR [YLR335W/NUP2] | 3.35 ± 0.069 | 3.39 ± 0.099 | 3.26 ± 0.044 | 3.31 ± 0.05
20 | AKTLIPSLNNKISDDEL [RPB4] | 2.98 ± 0.069 | 3.1 ± 0.069 | 3.06 ± 0.06 | 3.19 ± 0.061
21 | ALCKNRKCQFRTPDSIS [POP1] | 2.31 ± 0.053 | 2.77 ± 0.058 | 2.28 ± 0.082 | 1.94 ± 0.036
22 | ALDGDLIELLEKLDVSR [YCG1] | 3.27 ± 0.25 | 3.42 ± 0.2 | 3.16 ± 0.13 | 2.73 ± 0.2
23 | ALDYLIPPPMPKNQQYR [MED7] | 2.53 ± 0.08 | 2.58 ± 0.1 | 2.5 ± 0.096 | 2.6 ± 0.078
24 | ALEFLNTTLQDNVSFIE [REC8] | 2.95 ± 0.072 | 3.27 ± 0.12 | 3.05 ± 0.11 | 2.87 ± 0.072
25 | ALFQPPNFDWDLCSSVL [ROX3] | 3.08 ± 0.077 | 3.29 ± 0.098 | 2.95 ± 0.089 | 2.92 ± 0.09
26 | ALLIEVFTALLRLFINE [ITC1] | 2.11 ± 0.087 | 1.53 ± 0.076 | 1.42 ± 0.097 | 1.24 ± 0.051
27 | ALLKLSVKLKQKRLEAG [DIS3] | 1.11 ± 0.077 | 1.37 ± 0.085 | 1.04 ± 0.21 | 1.15 ± 0.099

Row | Sequence | protein stability index (doa10∆) | protein stability index (pdr5∆) | protein stability index (san1∆) | protein stability index (ubr1∆)
28 | ALNMLPSEILHLILDKL [GRR1] | 2.37 ± 0.13 | 2.07 ± 0.073 | 1.95 ± 0.13 | 2.03 ± 0.045
29 | ALPDVVVKGLPDISRAV [RPO31] | 2.85 ± 0.13 | 2.74 ± 0.079 | 2.86 ± 0.072 | 3.08 ± 0.12
30 | ALPRGARTATVSKKWAA [RPL14A] | 2.25 ± 0.067 | 2.23 ± 0.065 | 1.96 ± 0.1 | 2.14 ± 0.056
31 | ALQKGLKDLMDLCDVVE [RPC19] | 3.44 ± 0.24 | 2.84 ± 0.28 | 2.92 ± 0.13 | 3.02 ± 0.14
32 | ALSYAALILADSEIEIS [RPP1A] | 1.8 ± 0.058 | 1.93 ± 0.062 | 1.78 ± 0.06 | 1.9 ± 0.04
33 | ALTNELNELKAIKDKLE [YIL149C/MLP2] | 1.35 ± 0.061 | 2.01 ± 0.07 | 1.89 ± 0.096 | 1.96 ± 0.058
34 | ALVAYTPTDVIGVVSLT [RRP6] | 1.96 ± 0.091 | 1.57 ± 0.054 | 1.37 ± 0.11 | 1.93 ± 0.072
35 | ALYPQEARLRNLTYSSG [RPB2] | 2.39 ± 0.093 | 2.73 ± 0.1 | 2.75 ± 0.085 | 2.49 ± 0.089
36 | AMQYVCGDSIICNTLNI [SMC1] | 1.57 ± 0.072 | 1.65 ± 0.065 | 1.5 ± 0.1 | 1.51 ± 0.071
37 | ANAAKRAEAKAQGVAVQ [RPL21A] | 2.55 ± 0.13 | 1.96 ± 0.13 | 2.06 ± 0.28 | 1.92 ± 0.14
38 | ANEEPNTENVESVPTPA [ITC1] | 2.87 ± 0.14 | 2.91 ± 0.11 | 2.98 ± 0.26 | 3.18 ± 0.15
39 | ANETDKRPTPPSFTFGG [YOR098C/NUP1] | 3.01 ± 0.042 | 3.18 ± 0.047 | 2.96 ± 0.037 | 3.1 ± 0.033
40 | ANTNSVTSMEAAREKKI [YIL149C/MLP2] | 3 ± 0.077 | 3.05 ± 0.078 | 3 ± 0.049 | 3.01 ± 0.047
41 | ANVDQISFLEPINLKFL [YMR129W/POM152] | 2.75 ± 0.057 | 2.89 ± 0.077 | 2.92 ± 0.054 | 2.91 ± 0.048
42 | ANVIKALAFCEIGITQQ [RRP4] | 1.36 ± 0.07 | 2 ± 0.079 | 1.76 ± 0.16 | 2.26 ± 0.075
43 | ANVLDPSLRKLIESGIG [BRR2] | 1.87 ± 0.064 | 2.38 ± 0.071 | 2.47 ± 0.095 | 2.56 ± 0.045
44 | APAFHTSGKVELPKKLL [SRB8] |  |  | 2.93 ± 0.2 | 2.84 ± 0.12
45 | APMDFAIVVGWRAIIKA [FAS1] | 2.51 ± 0.086 | 2.66 ± 0.08 | 2.57 ± 0.082 | 2.14 ± 0.062
46 | APPQRPRFNRDNKVSPA [RPS26B] | 2.79 ± 0.1 | 2.45 ± 0.11 | 3.09 ± 0.14 | 
47 | APSLTVPPIASPQQFLR [PRE2] | 1.56 ± 0.05 | 1.95 ± 0.058 | 1.67 ± 0.071 | 1.65 ± 0.045
48 | AQTIGRNSKTVREFLEK [PRE6] | 2.76 ± 0.2 | 3.27 ± 0.29 | 3.29 ± 0.07 | 3.02 ± 0.14
49 | ARCYRYQKNKPYPKSRY [RPL10] | 2.3 ± 0.064 | 2.38 ± 0.065 | 2.41 ± 0.055 | 2.77 ± 0.057
50 | ARDLLTRDEKDPKRLFE [RPS9A] | 3.37 ± 0.19 | 3.6 ± 0.11 | 3.14 ± 0.14 | 3.62 ± 0.083
51 | ARVSPRNNVANKQPRNE [YAR002W/NUP60] | 3.29 ± 0.14 | 3.78 ± 0.26 |  | 3.65 ± 0.25
52 | ASELANPYSSYVSQIRK [YAR002W/NUP60] | 3.22 ± 0.17 | 2.9 ± 0.13 | 2.31 ± 0.17 | 1.92 ± 0.073
53 | ASFYSVNTEKKTIEVTA [RPN3] |  | 1.29 ± 0.11 |  | 1.65 ± 0.28
